From PMC10157173 (Frontiers in Immunology, 2023)
Blank lines part the entries; values can stand above or below the binder they belong to.

How the values were obtained:
[1] = target: T1, His-tagged recombinant human HER3 ECD (Homo sapiens (Human)., UniProt P21860); test: ELISA; direct ELISA: His-tagged EGFR, HER2 or HER3 coated at 800 ng/ml in PBS on Maxisorp plates; two-fold or ten-fold dilutions of BiXAb™ or 1MAbs in PBS, 37°C, 1 h; detected with peroxidase-conjugated anti-human Fc; details: both partners purified
T1 construct: human HER3, extracellular domain (ECD); see the supplier's catalogue entry; also called HER3-His; source: bought: Sino Biological Inc (#10201-H08H)

[2] = target: T2, His-tagged recombinant human EGFR ECD (Homo sapiens (Human)., UniProt P00533); test: as above; details: both partners purified
T2 construct: human EGFR, extracellular domain (ECD); see the supplier's catalogue entry; also called EGFR-His; source: bought: Sino Biological Inc (#10001-H08H)

binding result [1]: binds
B1: patritumab (antibody, V domains shown)
VH: QVQLQQWGAGLLKPSETLSLTCAVYGGSFSGYYWSWIRQPPGKGLEWIGEINHSGSTNYNPSLKSRVTISVETSKNQFSLKLSSVTAADTAVYYCARDKWTWYFDLWGRGTLVTVSS
VL: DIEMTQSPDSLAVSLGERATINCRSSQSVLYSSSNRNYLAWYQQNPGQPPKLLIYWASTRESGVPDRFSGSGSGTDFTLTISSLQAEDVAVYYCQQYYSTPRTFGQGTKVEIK
notes: heavy chain of patritumab; light chain of patritumab; also called 3Patri; anti-HER3 mAb; source: cloning, production and purification of mAbs at Icosagen; copies: 2 + 2

binding result [1]: binds
B2: elgemtumab (antibody, V domains shown)
VH: EVQLLESGGGLVQPGGSLRLSCAASGFTFSSYAMSWVRQAPGKGLEWVSAINSQGKSTYYADSVKGRFTISRDNSKNTLYLQMNSLRAEDTAVYYCARWGDEGFDIWGQGTLVTVSS
VL: DIQMTQSPSSLSASVGDRVTITCRASQGISNWLAWYQQKPGKAPKLLIYGASSLQSGVPSRFSGSGSGTDFTLTISSLQPEDFATYYCQQYSSFPTTFGQGTKVEIK
notes: heavy chain of elgemtumab; light chain of elgemtumab; also called 3Elgem; anti-HER3 mAb; source: cloning, production and purification of mAbs at Icosagen; copies: 2 + 2

binding result [2]: binds
B3: matuzumab (antibody, V domains shown)
VH: QVQLVQSGAEVKKPGASVKVSCKASGYTFTSHWMHWVRQAPGQGLEWIGEFNPSNGRTNYNEKFKSKATMTVDTSTNTAYMELSSLRSEDTAVYYCASRDYDYDGRYFDYWGQGTLVTVSS
VL: DIQMTQSPSSLSASVGDRVTITCSASSSVTYMYWYQQKPGKAPKLLIYDTSNLASGVPSRFSGSGSGTDYTFTISSLQPEDIATYYCQQWSSHIFTFGQGTKVEIK
notes: heavy chain of matuzumab; light chain of matuzumab; also called 1Matu; anti-EGFR mAb; source: cloning, production and purification of mAbs at Icosagen; matuzumab also donated by Merck AG; copies: 2 + 2
